# Test results as given in paper PMC4869175, “Evidence that phytochrome functions as a protein kinase in plant light signalling” (Nature Communications, 2016).
# Numbering of substitutions follows the chain as printed.
# T1: AsphyA T418D, full length (Avena sativa, UniProt P06593 1-1129, T418D, phycocyanobilin chromophore assembled)
# T1 construct: Avena sativa phytochrome A, full length, with T418D; source: phycocyanobilin added in vitro
# T1 sequence (looked up): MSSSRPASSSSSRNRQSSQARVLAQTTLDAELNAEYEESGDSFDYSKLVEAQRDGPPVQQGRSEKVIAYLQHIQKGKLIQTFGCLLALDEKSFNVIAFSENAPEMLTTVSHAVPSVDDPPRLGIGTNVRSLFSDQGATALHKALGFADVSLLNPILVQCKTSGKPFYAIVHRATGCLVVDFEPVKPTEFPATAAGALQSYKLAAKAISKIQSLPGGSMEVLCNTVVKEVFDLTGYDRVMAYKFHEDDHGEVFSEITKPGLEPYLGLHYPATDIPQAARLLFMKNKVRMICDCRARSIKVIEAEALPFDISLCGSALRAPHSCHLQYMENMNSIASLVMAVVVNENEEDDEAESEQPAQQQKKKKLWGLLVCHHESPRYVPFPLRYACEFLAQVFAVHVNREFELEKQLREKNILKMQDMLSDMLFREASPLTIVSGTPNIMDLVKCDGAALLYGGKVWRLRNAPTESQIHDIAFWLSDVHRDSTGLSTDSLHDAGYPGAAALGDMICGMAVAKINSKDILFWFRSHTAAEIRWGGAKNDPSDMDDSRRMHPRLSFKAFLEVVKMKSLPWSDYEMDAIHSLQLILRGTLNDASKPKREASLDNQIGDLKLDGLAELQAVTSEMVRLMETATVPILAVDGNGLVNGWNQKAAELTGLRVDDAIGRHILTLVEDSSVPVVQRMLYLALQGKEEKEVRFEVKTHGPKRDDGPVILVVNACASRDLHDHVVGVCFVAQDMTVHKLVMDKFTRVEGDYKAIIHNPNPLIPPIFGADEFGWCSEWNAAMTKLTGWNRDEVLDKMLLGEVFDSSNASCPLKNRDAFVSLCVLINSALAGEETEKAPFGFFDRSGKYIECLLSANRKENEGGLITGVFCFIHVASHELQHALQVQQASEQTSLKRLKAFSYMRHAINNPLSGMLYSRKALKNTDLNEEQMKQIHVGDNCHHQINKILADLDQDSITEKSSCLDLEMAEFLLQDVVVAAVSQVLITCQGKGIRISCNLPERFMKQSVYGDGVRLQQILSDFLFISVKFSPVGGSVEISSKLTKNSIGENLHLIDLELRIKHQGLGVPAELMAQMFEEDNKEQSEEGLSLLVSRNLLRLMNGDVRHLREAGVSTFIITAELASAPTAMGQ
# T2: AsphyA K411L, full length (Avena sativa, UniProt P06593 1-1129, K411L, phycocyanobilin chromophore assembled)
# T2 construct: Avena sativa phytochrome A, full length, with K411L; source: phycocyanobilin added in vitro
# T2 sequence (looked up): T1 sequence (looked up) with K411L, D418T
# B1: GST/strep-fused FHL (natural protein, UniProt A8MR65 1-201, looked up)
# chain: MDDADKSCSPSLDHSDINDPMIVAVESLDTSKKRKLHAEESDLLPLPKHFCSEHQASLVNSSCPSSVIDYAECSYAMENTKTSDEASSSASFTGPSLYMFKDSIYSTGSSSSGYAATSSIEQCFSKVDHKTQEDTQDFTHMEFIYHDSEFAVEDLQEVLNPVESYILSSARWSVSNQDSKEATTKPTIDQEFEQYFSTLMM
# notes: FHL, which with FHY1 takes part in the nuclear localization of phyA; not shown: GST, N-terminal, kept
# B2: GST/strep-fused FHY1 (far-red elongated hypocotyl 1) (natural protein, UniProt Q8S4Q6 1-202, looked up)
# chain: MPEVEVDNNNEKPSEINSFHHMIISSSKNVLKMEEVEVSKKRKFQTDQSDELSLLPLSKHTCFANVACSENTNGNSEIDTEYSMSSYVNSTTSMECNNDIEMKEESSGSCGEDKMISFESHLDYIYGTQNLEDFSEKVIENILYLDEQEEEEEDAKGCSSNAAKFVLSSGRWTVNQDDSTLHETKKPTIDQEFEQYFSTLML
# notes: FHY1 (far-red elongated hypocotyl 1); not shown: GST, N-terminal, kept
# B3: GST/strep-fused PIF3 (natural protein, UniProt O80536 1-524, looked up)
# chain: MPLFELFRLTKAKLESAQDRNPSPPVDEVVELVWENGQISTQSQSSRSRNIPPPQANSSRAREIGNGSKTTMVDEIPMSVPSLMTGLSQDDDFVPWLNHHPSLDGYCSDFLRDVSSPVTVNEQESDMAVNQTAFPLFQRRKDGNESAPAASSSQYNGFQSHSLYGSDRARDLPSQQTNPDRFTQTQEPLITSNKPSLVNFSHFLRPATFAKTTNNNLHDTKEKSPQSPPNVFQTRVLGAKDSEDKVLNESVASATPKDNQKACLISEDSCRKDQESEKAVVCSSVGSGNSLDGPSESPSLSLKRKHSNIQDIDCHSEDVEEESGDGRKEAGPSRTGLGSKRSRSAEVHNLSERRRRDRINEKMRALQELIPNCNKVDKASMLDEAIEYLKSLQLQVQIMSMASGYYLPPAVMFPPGMGHYPAAAAAMAMGMGMPYAMGLPDLSRGGSSVNHGPQFQVSGMQQQPVAMGIPRVSGGGIFAGSSTIGNGSTRDLSGSKDQTTTNNNSNLKPIKRKQGSSDQFCGSS
# notes: Probably Arabidopsis PIF3, as PIF1 and PIF4 are called Arabidopsis; not shown: GST, N-terminal, kept
# Target: T1, AsphyA T418D, full length
# Test: pull-down; GST/strep-fused interacting protein (1.0 μg) held on glutathione resin, phytochrome (1.0 μg) in solution, Pr and Pfr forms both tested; 60 min at 4 °C in pull-down buffer (100 mM Tris-HCl pH 7.8, 1 mM EDTA, 150 mM NaCl, 100 μg/ml BSA); western blot with oat22 and anti-GST
# Conditions: both partners purified
row,binding result,Binder
1,binds,B1
2,binds,B2
3,binds,B3

# Target: T2, AsphyA K411L, full length
# Test: as above
# Conditions: both partners purified
row,binding result,Binder
1,binds,B1
2,binds,B2
3,binds,B3
